Source: patent US20160051704A1, “MOLECULAR IMAGING PROBES FOR LUNG CANCER INTRAOPERATIVE GUIDANCE” (H. Lee Moffitt Cancer Center and Research Institute, Inc., priority 2013, published 2016)

Tests used:
[1] = target: delta opioid receptor (δOR) on HCT-116/δOR cells (UniProt P41143); test: LTRF competitive binding against Eu-DTPA-DPLCE (5 nM) on whole HCT-116/δOR cells; average of three experiments
[2] = target: delta opioid receptor (δOR) on HCT-116/δOR cells (UniProt P41143); test: TRF competitive binding against Eu-labeled DPLCE on HCT116/δOR cells

Row | Ki [1] | Ki [2] | Substance
1 | 1.43 nM | – | Dmt-Tic-IR800 (Compound 1 of Scheme 4) (peptide)
2 | – | 3 nM | Dmt-Tic-Lys(Cy5)-OH (Cy5 labeled ligand 1) (peptide)
3 | – | 2.5 nM | Dmt-Tic-Lys(Mpr)-OH (ligand 6) (peptide)
